Measured values published in article PMC8263624, “Asymmetric reconstruction of mammalian reovirus reveals interactions among RNA, transcriptional factor µ2 and capsid proteins” (Nature Communications, 2021).

How the values were obtained:
[1] = molecular target: T1, RNA-dependent RNA polymerase (RdRp) λ3 (Mammalian reovirus serotype Dearing 3, UniProt P0CK31 1-1267); assay: cryo-EM structure; asymmetric (C1) vertex sub-particle reconstructions of native MRV ISVP at 3.3 Å, asymmetric full ISVP at 4.3 Å; isolated virus particles in PBS pH 7.4; proteins assembled in the particle, in situ; conditions: both partners purified
T1 construct: RdRp λ3 of mammalian reovirus serotype Dearing 3, native in the virus particle; domains stated as residues 1-386, 387-556 and 595-690, 557-594 and 691-792, 793-901, 902-1267; Part of the transcribing enzyme complex (TEC) with µ2; ten TECs in each particle
T1 sequence: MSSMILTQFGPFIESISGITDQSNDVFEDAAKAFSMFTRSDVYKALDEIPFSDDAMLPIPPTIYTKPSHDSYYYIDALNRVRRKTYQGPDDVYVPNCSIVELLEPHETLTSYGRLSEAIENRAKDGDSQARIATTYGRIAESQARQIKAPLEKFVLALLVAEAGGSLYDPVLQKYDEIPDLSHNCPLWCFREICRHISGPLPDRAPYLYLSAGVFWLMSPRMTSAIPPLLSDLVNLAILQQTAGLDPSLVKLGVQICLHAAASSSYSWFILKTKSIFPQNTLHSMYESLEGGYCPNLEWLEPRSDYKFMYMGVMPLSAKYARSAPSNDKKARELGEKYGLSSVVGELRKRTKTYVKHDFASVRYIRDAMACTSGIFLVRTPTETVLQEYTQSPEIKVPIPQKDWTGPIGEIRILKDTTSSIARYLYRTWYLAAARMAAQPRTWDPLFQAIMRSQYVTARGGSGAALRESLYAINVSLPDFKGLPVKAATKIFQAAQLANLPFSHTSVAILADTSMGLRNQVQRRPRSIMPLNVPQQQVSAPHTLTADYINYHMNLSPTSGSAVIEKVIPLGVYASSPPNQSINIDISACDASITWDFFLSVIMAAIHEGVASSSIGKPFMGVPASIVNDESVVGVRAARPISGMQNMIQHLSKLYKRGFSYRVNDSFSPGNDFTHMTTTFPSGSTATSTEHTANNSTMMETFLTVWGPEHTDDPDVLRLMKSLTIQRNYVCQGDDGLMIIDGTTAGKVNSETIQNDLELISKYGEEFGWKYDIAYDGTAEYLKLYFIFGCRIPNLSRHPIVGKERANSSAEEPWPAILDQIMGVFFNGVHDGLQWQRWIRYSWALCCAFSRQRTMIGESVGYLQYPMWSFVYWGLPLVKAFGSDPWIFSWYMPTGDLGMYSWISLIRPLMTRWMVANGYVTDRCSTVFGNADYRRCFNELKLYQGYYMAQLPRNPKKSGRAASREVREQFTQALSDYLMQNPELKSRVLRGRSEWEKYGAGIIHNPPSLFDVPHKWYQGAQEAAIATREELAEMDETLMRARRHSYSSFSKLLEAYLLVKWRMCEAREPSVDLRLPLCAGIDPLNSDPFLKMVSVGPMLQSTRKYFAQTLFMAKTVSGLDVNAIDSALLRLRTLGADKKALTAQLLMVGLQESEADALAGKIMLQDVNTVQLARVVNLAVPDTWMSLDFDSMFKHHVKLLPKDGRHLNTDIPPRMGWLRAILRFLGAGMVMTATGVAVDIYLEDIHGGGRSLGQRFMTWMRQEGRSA

[2] = molecular target: T2, capsid shell protein (CSP) λ1 (Mammalian reovirus serotype Dearing 3, UniProt P15024 1-1275); assay: as above; conditions: both partners purified
T2 construct: capsid shell protein λ1 of mammalian reovirus serotype Dearing 3, native in the virus particle; 120 copies in each particle as λ1A/λ1B dimers; five pairs (1-5) around each vertex; also called λ1A; λ1B
T2 sequence: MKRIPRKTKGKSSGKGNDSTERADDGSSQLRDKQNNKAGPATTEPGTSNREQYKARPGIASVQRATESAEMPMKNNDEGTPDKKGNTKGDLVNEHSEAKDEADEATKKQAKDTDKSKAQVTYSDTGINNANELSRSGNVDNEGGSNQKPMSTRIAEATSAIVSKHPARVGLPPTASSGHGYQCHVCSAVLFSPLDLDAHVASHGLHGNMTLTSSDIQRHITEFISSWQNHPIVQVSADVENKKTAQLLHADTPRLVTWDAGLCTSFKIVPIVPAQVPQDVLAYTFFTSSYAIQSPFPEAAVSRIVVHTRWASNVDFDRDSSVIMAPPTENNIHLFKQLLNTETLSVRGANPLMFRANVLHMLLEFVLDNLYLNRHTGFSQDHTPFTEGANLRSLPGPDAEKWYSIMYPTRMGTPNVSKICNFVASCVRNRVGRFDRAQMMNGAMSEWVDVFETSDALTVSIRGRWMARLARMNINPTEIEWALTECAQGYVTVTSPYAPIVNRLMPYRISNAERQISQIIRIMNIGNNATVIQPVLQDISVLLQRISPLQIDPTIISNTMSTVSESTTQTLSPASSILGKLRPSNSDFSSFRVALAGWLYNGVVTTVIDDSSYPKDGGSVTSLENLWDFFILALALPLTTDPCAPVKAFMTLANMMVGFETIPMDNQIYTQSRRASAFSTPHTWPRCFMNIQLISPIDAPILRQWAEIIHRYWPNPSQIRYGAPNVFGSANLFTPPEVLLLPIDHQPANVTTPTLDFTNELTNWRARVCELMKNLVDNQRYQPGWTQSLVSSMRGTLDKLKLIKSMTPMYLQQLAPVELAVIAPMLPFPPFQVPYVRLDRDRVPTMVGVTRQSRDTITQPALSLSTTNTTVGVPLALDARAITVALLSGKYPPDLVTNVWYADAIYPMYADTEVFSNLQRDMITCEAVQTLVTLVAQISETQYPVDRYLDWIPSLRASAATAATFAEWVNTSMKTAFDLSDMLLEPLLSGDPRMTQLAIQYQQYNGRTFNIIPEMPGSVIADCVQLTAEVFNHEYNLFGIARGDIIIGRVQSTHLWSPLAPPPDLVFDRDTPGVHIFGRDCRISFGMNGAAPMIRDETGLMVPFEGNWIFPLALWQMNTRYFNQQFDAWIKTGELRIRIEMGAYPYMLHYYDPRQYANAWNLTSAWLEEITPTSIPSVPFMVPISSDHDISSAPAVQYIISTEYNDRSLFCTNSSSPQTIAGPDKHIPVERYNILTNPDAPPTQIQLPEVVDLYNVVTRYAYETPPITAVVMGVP

B1: RdRp-bound nucleoside triphosphatase μ2 (enzyme)
chain: MAYIAVPAVVDSRSSEAIGLLESFGVDAGADANDVSYQDHDYVLDQLQYMLDGYEAGDVIDALVHKNWLHHSVYCLLPPKSQLLEYWKSNPSAIPDNVDRRLRKRLMLKKDLRKDDEYNQLARAFKISDVYAPLISSTTSPMTMIQNLNRGEIVYTTTDRVIGARILLYAPRKYYASTLSFTMTKCIIPFGKEVGRVPHSRFNVGTFPSIATPKCFVMSGVDIESIPNEFIKLFYQRVKSVHANILNDISPQIVSDMINRKRLRVHTPSDRRAAQLMHLPYHVKRGASHVDVYKVDVVDMLFEVVDVADGLRNVSRKLTMHTVPVCILEMLGIEIADYCIRQEDGMLTDWFLLLTMLSDGLTDRRTHCQYLMNPSSVPPDVILNISITGFINRHTIDVMPDIYDFVKPIGAVLPKGSFKSTIMRVLDSISILGIQIMPRAHVVDSDEVGEQMEPTFEQAVMEIYKGIAGVDSLDDLIKWVLNSDLIPHDDRLGQLFQAFLPLAKDLLAPMARKFYDNSMSEGRLLTFAHADSELLNANYFGHLLRLKIPYITEVNLMIRKNREGGELFQLVLSYLYKMYATSAQPKWFGSLLRLLICPWLHMEKLIGEADPASTSAEIGWHIPREQLMQDGWCGCEDGFIPYVSIRAPRLVIEELMEKNWGQYHAQVIVTDQLVVGEPRRVSAKAVIKGNHLPVKLVSRFACFTLTAKYEMRLSCGHSTGRGAAYSARLAFRSDLA
notes: NTPase μ2 of mammalian reovirus serotype Dearing 3, native in the virus particle; 736 residues in all, 680 modelled; RBD 1-264, NTPase domain 265-607, CTD 608-736; also called NTPase; NTPase μ2
Does B1 bind [1]?
Result: binds

Does B1 bind [2]?
Result: binds
